Measurements taken from article PMC10579561, “Real flue gas CO2 hydrogenation to formate by an enzymatic reactor using O2- and CO-tolerant hydrogenase and formate dehydrogenase” (Frontiers in Bioengineering and Biotechnology, 2023).

Substrate: NC(=O)C1=CN([C@@H]2O[C@H](COP(=O)(O)OP(=O)(O)OC[C@H]3O[C@@H](n4cnc5c(N)ncnc54)[C@H](O)[C@@H]3O)[C@@H](O)[C@H]2O)C=CC1
Assay: purified protein
Type: biochemical, Methylorubrum extorquens
Conditions: 100 mM sodium bicarbonate, N2-purged 200 mM Kpi pH 6.5 (no O2 or CO), NADH varied 6.25-100 µM, table header prints NAD+, free enzyme

B1: MeFDH1 (Methylorubrum extorquens AM1) (protein)
chain: MSEASGTVRSFAHPGRGRNVARAVPKGRQVDPHAKVEIEELLGTRPRQRDLLIEHLHLIQDTYGQISADHLAALADEMSLAFAEVFETATFYAHFDVVKEGEADIPRLTIRVCDSITCAMFGADELLETLQRELASDAVRVVRAPCVGLCDHAPAVEVGHNFLHRADLASVRAAVEAEDTHAHIPTYVDYDAYRAGGGYATLERLRSGELPVDDVLKVLDDGGLRGLGGAGFPTGRKWRSVRGEPGPRLMAVNGDEGEPGTFKDQLYLNTDPHRFLEGMLIGAHVVEAADVYIYLRDEYPISREILAREIAKLPEGGTRIHLRRGAGAYICGEESSLIESLEGKRGLPRHKPPFPFQVGLFNRPTLINNIETLFWVRDLIERGAEWWKSHGRNGRVGLRSYSVSGRVKEPGVKLAPAGLTIQELIDEYCGGISDGHSFAAYLPGGASGGILPASMNDIPLDFGTLEKYGCFIGSAAVVILSDQDDVRGAALNLMKFFEDESCGQCTPCRSGTQKARMLMENGVWDTDLLGELAQCMRDASICGLGQAASNPVSTVIKYFPDLFPEPRAVAAE
notes: with Tungsten-containing formate dehydrogenase alpha subunit
- Km: 26.38 ± 1.16 µM
- kcat: 2.27 ± 0.064 s⁻¹
- kcat/Km: 86200 ± 3000 M⁻¹ s⁻¹
